Consider three molecules from patent US9284543B2, “Neutral active soluble truncated PH20 polypeptides and uses thereof” (Halozyme, Inc., priority 2008, dated 2016).

Series [1] in a line: Triton X-114 partition assay. Conditions: partition into aqueous phase of Triton X-114 at 37° C. The class given is physicochemical. As for the experimental part: Solubility of a hyaluronidase can be determined by any method known to one of the skill in the art. One method for determining solubility is by detergent partitioning. […] For example, the solubility of the PH20 polypeptides described herein is assessed as described in Example 4. Membrane-anchored hyaluronidases, such as lipid-anchored hyaluronidases, including GPI-anchored hyaluronidases, will partition into the detergent-rich phase, but will partition into the detergent-poor or aqueous phase following treatment with Phospholipase C. Phospholipase C is an enzyme that cleaves the […] found in GPI-anchored proteins. Treatment with PLC will cause release of GPI-linked proteins from the outer cell membrane.
The samples were heated to 37° C. for 3 minutes to induce phase separation and centrifuged for 3 min at 4000 g at room temperature. Aqueous and detergent phases were removed for SDS-PAGE analysis and Western blotting. Rabbit anti-PH20 IgG (0.5 μg/mL) was used as the primary antibody and HRP-conjugated goat anti-Rabbit IgG (0.1 ng/mL, Cat#DC03L, EMD) was used as the secondary antibody. Full length human PH20, which partitions strongly into the detergent phase, was used as a control.

Series [2] deals with CHO-S cells. The series can be described thus: PI-PLC treatment of expressing cells, Western blot of media and cells. Conditions: cells incubated with PI-PLC for 2 hours. Type of series: cell-based, Chinese Hamster. The method, then: In this example, following transient expression, as described in Example 2 above, the media and cells were harvested separately and analyzed for PH20 expression and solublility by Western blot analysis. Solubility of the C-terminus truncation mutants was determined by examining whether the expressed protein was present in the growth media or in the cells. […] Cells expressing these mutants were treated with phosphoinositol-phospholipase C (PI-PLC), which cleaves the GPI-anchor allowing the release of soluble protein into the media, and the presence of PH20 in the resulting media and cells was determined by Western blot analysis.
Following expression of rHuPH20 in CHO—S cells for 72 hours, as described in Example 2A above, the media and cells were harvested separately. The cells were washed with serum-free media followed by the addition of 2 mL serum-free media per well. PI-PLC (0.5 units/well) was added to each well and the cells were incubated in the PI-PLC for 2 hours. The resultant media and cells were analyzed by Western blot analysis as described above.
Two plates each of rHuPH20 expressing CHO—S cells, one for treatment with PI-PLC and one without treatment with PI-PLC, were prepared for each C-terminus mutant as described in Example 2B above. Following expression for 48 hours, for cells untreated with PI-PLC, the media and cells were harvested separately. The harvested media was spun down, concentrated to a volume of 10 mL, and buffer exchanged into PBS using an Amicon 30 kD MWCO concentrator. The cells were rinsed with cold PBS and scraped and resuspended in 1.2 mL PBS with protease inhibitor Set III (Cat No. 539134, Calbiochem). The resuspended cells were briefly sonicated to prepare whole-cell extract. For PI-PLC treatment of cells, following expression for 48 hours, the untreated media was harvested, as described above. The cells were rinsed once with fresh CD DG44 medium with Glutamax-1, and the media was replaced with 12 mL fresh detergent free CD DG44 medium supplemented with Glutamax-1 with 3.0 units PI-PLC per dish, and the cells were incubated for 2 hours at 37° C. with 5% CO2. After 2 hours, the PI-PLC media and cells were harvested separately, as described above. The resultant untreated media and cells, and PI-PLC treated media and cells, were analyzed by Western blot analysis as described above.
In general terms: A western blot detects proteins with antibodies after separation by electrophoresis.

The test system of series [3] is CHO-S cells. The series can be described thus: Western blot analysis of PH20 expression in media and cells after transient expression. Type of series: cell-based, Chinese Hamster. Conditions: media versus cells. A digest of the protocol:
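CHO-S cells were transiently transfected with mutant PH20-HZ24 plasmids using GeneJuice and expressed for 48-72 h at 37 °C, 5% CO2. Media and cells were harvested separately, with PI-PLC treatment used to release GPI-anchored protein. Non-reduced samples were blotted with rabbit anti-PH20 (0.5 μg/mL), and a band near 66 kDa was scored as PH20.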

Series [4] in a line: Microtiter hyaluronidase activity assay with biotinylated-hyaluronic acid. Type of series: biochemical. Conditions: for pH 5.5 Activity / pH 7.4 Activity: 72 hour post transfection supernatant; for Hyaluronidase activity (in words): pH 7.4 and pH 5.5.

B1: SPAM1-SILF: C-terminally truncated human PH20, precursor 500 aa (SEQ ID NO:48), mature 465 aa (SEQ ID NO:100) (protein, listed as Homo sapiens)
chain 1: MGVLKFKHIFFRSFVKSSGVSQIVFTFLLIPCCLTLNFRAPPVIPNVPFLWAWNAPSEFCLGKFDEPLDMSLFSFIGSPRINATGQGVTIFYVDRLGYYPYIDSITGVTVNGGIPQKISLQDHLDKAKKDITFYMPVDNLGMAVIDWEEWRPTWARNWKPKDVYKNRSIELVQQQNVQLSLTEATEKAKQEFEKAGKDFLVETIKLGKLLRPNHLWGYYLFPDCYNHHYKKPGYNGSCFNVEIKRNDDLSWLWNESTALYPSIYLNTQQSPVAATLYVRNRVREAIRVSKIPDAKSPLPVFAYTRIVFTDQVLKFLSQDELVYTFGETVALGASGIVIWGTLSIMRSMKSCLLLDNYMETILNPYIINVTLAAKMCSQVLCQEQGVCIRKNWNSSDYLHLNPDNFAIQLEKGGKFTVRGKPTLEDLEQFSEKFYCSCYSTLSCKEKADVKDTDAVDVCIADGVCIDAFLKPPMETEEPQIFYNASPSTLSATMFIVSILF
chain 2: LNFRAPPVIPNVPFLWAWNAPSEFCLGKFDEPLDMSLFSFIGSPRINATGQGVTIFYVDRLGYYPYIDSITGVTVNGGIPQKISLQDHLDKAKKDITFYMPVDNLGMAVIDWEEWRPTWARNWKPKDVYKNRSIELVQQQNVQLSLTEATEKAKQEFEKAGKDFLVETIKLGKLLRPNHLWGYYLFPDCYNHHYKKPGYNGSCFNVEIKRNDDLSWLWNESTALYPSIYLNTQQSPVAATLYVRNRVREAIRVSKIPDAKSPLPVFAYTRIVFTDQVLKFLSQDELVYTFGETVALGASGIVIWGTLSIMRSMKSCLLLDNYMETILNPYIINVTLAAKMCSQVLCQEQGVCIRKNWNSSDYLHLNPDNFAIQLEKGGKFTVRGKPTLEDLEQFSEKFYCSCYSTLSCKEKADVKDTDAVDVCIADGVCIDAFLKPPMETEEPQIFYNASPSTLSATMFIVSILF
modifications: HuPH20 precursor 1-500; Mature HuPH20 36-500
For the molecule B1, the Soluble entry in series [1] is recorded as “YES”. Moreover, the “Expressed in Media Following Addition of PI-PLC” value (shortened to “Expressed … of PI-PLC”) in the series on CHO-S cells [2] was “Initially in media”. Also, the “Expressed in Media” value with CHO-S cells [3] is “WEAK/YES”. In series [4] (Table 6A), the “pH 5.5 Activity” value is recorded as 0.162 Units/ml and the “pH 7.4 Activity” value is listed as 0.365 Units/ml. In series [4], the “Hyaluronidase activity (in words)” value is given as “little detectable activity”.

B2: SPAM1-VSIL: C-terminally truncated human PH20, precursor 499 aa (SEQ ID NO:7), mature 464 aa (SEQ ID NO:59) (protein, listed as Homo sapiens)
chain: LNFRAPPVIPNVPFLWAWNAPSEFCLGKFDEPLDMSLFSFIGSPRINATGQGVTIFYVDRLGYYPYIDSITGVTVNGGIPQKISLQDHLDKAKKDITFYMPVDNLGMAVIDWEEWRPTWARNWKPKDVYKNRSIELVQQQNVQLSLTEATEKAKQEFEKAGKDFLVETIKLGKLLRPNHLWGYYLFPDCYNHHYKKPGYNGSCFNVEIKRNDDLSWLWNESTALYPSIYLNTQQSPVAATLYVRNRVREAIRVSKIPDAKSPLPVFAYTRIVFTDQVLKFLSQDELVYTFGETVALGASGIVIWGTLSIMRSMKSCLLLDNYMETILNPYIINVTLAAKMCSQVLCQEQGVCIRKNWNSSDYLHLNPDNFAIQLEKGGKFTVRGKPTLEDLEQFSEKFYCSCYSTLSCKEKADVKDTDAVDVCIADGVCIDAFLKPPMETEEPQIFYNASPSTLSATMFIVSIL
modifications: mature HuPH20 36-499
As for B2, in series [1], the Soluble result was “YES”. Besides, in the series with CHO-S cells [2], the “Expressed … of PI-PLC” value is listed as “Initially in media”. In addition, the “Expressed in Media” value in the series with CHO-S cells [3] is “YES”. Further, the entries for the “pH 5.5 Activity” value in series [4] (Table 6) and in series [4] (Table 6A) were 0.045 Units/ml and 0.122 Units/ml, respectively. In addition, the entries for the “pH 7.4 Activity” value in series [4] (Table 6) and in series [4] (Table 6A) were 0.02025 Units/ml and 0.486 Units/ml, respectively. In addition, in series [4], the “Hyaluronidase activity (in words)” value is “little detectable activity”.

B3: SPAM1-IVSI: C-terminally truncated human PH20, precursor 498 aa (SEQ ID NO:49), mature 463 aa (SEQ ID NO:101) (protein, listed as Homo sapiens)
chain 1: MGVLKFKHIFFRSFVKSSGVSQIVFTFLLIPCCLTLNFRAPPVIPNVPFLWAWNAPSEFCLGKFDEPLDMSLFSFIGSPRINATGQGVTIFYVDRLGYYPYIDSITGVTVNGGIPQKISLQDHLDKAKKDITFYMPVDNLGMAVIDWEEWRPTWARNWKPKDVYKNRSIELVQQQNVQLSLTEATEKAKQEFEKAGKDFLVETIKLGKLLRPNHLWGYYLFPDCYNHHYKKPGYNGSCFNVEIKRNDDLSWLWNESTALYPSIYLNTQQSPVAATLYVRNRVREAIRVSKIPDAKSPLPVFAYTRIVFTDQVLKFLSQDELVYTFGETVALGASGIVIWGTLSIMRSMKSCLLLDNYMETILNPYIINVTLAAKMCSQVLCQEQGVCIRKNWNSSDYLHLNPDNFAIQLEKGGKFTVRGKPTLEDLEQFSEKFYCSCYSTLSCKEKADVKDTDAVDVCIADGVCIDAFLKPPMETEEPQIFYNASPSTLSATMFIVSI
chain 2: LNFRAPPVIPNVPFLWAWNAPSEFCLGKFDEPLDMSLFSFIGSPRINATGQGVTIFYVDRLGYYPYIDSITGVTVNGGIPQKISLQDHLDKAKKDITFYMPVDNLGMAVIDWEEWRPTWARNWKPKDVYKNRSIELVQQQNVQLSLTEATEKAKQEFEKAGKDFLVETIKLGKLLRPNHLWGYYLFPDCYNHHYKKPGYNGSCFNVEIKRNDDLSWLWNESTALYPSIYLNTQQSPVAATLYVRNRVREAIRVSKIPDAKSPLPVFAYTRIVFTDQVLKFLSQDELVYTFGETVALGASGIVIWGTLSIMRSMKSCLLLDNYMETILNPYIINVTLAAKMCSQVLCQEQGVCIRKNWNSSDYLHLNPDNFAIQLEKGGKFTVRGKPTLEDLEQFSEKFYCSCYSTLSCKEKADVKDTDAVDVCIADGVCIDAFLKPPMETEEPQIFYNASPSTLSATMFIVSI
modifications: HuPH20 precursor 1-498; Mature HuPH20 36-498
With B3, the Soluble result in series [1] is “YES”. For the same molecule, the “Expressed … of PI-PLC” value in the series on CHO-S cells [2] was “Initially in media”. Also, the “Expressed in Media” value with CHO-S cells [3] is given as “YES”. In series [4] (Table 6A), the “pH 5.5 Activity” value came to 0.203 Units/ml and the “pH 7.4 Activity” value was determined as 0.527 Units/ml. Moreover, in series [4], the “Hyaluronidase activity (in words)” value is recorded as “little detectable activity”.
